B1: BBSome complex member BBS1 (Homo sapiens), Q8NFJ9 (parent)
chain: MAAASSSDSDACGAESNEANSKWLDAHYDPMANIHTFSACLALADLHGDGEYKLVVGDLGPGGQQPRLKVLKGPLVMTESPLPALPAAAATFLMEQHEPRTPALALASGPCVYVYKNLRPYFKFSLPQLPPNPLEQDLWNQAKEDRIDPLTLKEMLESIRETAEEPLSIQSLRFLQLELSEMEAFVNQHKSNSIKRQTVITTMTTLKKNLADEDAVSCLVLGTENKELLVLDPEAFTILAKMSLPSVPVFLEVSGQFDVEFRLAAACRNGNIYILRRDSKHPKYCIELSAQPVGLIRVHKVLVVGSTQDSLHGFTHKGKKLWTVQMPAAILTMNLLEQHSRGLQAVMAGLANGEVRIYRDKALLNVIHTPDAVTSLCFGRYGREDNTLIMTTRGGGLIIKILKRTAVFVEGGSEVGPPPAQAMKLNVPRKTRLYVDQTLREREAGTAMHRAFQTDLYLLRLRAARAYLQALESSLSPLSTTAREPLKLHAVVQGLGPTFKLTLHLQNTSTTRPVLGLLVCFLYNEALYSLPRAFFKVPLLVPGLNYPLETFVESLSNKGISDIIKVLVLREGQSAPLLSAHVNMPGSEGLAAA
partner: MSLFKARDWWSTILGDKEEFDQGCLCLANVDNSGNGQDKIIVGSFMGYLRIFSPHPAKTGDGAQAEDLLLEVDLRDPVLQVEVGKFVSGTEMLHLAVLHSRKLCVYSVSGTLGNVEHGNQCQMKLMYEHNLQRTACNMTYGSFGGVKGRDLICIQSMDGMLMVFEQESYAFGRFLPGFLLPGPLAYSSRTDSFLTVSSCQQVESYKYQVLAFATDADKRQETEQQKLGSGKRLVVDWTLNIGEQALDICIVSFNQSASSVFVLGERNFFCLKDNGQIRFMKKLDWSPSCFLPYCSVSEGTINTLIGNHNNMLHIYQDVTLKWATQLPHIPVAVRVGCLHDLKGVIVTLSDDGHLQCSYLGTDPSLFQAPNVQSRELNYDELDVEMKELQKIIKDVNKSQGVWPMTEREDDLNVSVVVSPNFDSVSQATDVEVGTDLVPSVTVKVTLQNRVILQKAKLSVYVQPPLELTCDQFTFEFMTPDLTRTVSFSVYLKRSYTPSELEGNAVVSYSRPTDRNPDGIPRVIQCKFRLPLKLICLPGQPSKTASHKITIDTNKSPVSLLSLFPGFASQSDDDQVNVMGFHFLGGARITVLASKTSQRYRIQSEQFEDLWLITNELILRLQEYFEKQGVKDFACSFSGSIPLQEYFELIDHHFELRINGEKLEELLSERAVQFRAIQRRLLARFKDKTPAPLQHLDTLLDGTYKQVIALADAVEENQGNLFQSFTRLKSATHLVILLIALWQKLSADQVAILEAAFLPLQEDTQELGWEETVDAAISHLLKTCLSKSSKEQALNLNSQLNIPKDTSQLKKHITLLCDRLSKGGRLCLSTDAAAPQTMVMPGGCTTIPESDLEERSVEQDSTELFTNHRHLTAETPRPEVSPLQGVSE

Variants of: B1
Conditions: with pthb1_human BBS9, Q3SYG4

| Variant | effect of a mutation on the interaction |
| --- | --- |
| MAAASSSDSDACGAESNEANSKWLDAHYDPMANIHTFSACLALADLHGDGEYKLVVGDLGPGGQQPRLKVLKGPLVMTESPLPALPAAAATFLMEQHEPRTPALALASGPCVYVYKNLRPYFKFSLPQLPPNPLEQDLWNQAKEDRIDPLTLKEMLESIRETAEEPLSIQSLRFLQLELSEMEAFVNQHKSNSIKRQTVITTMTTLKKNLADEDAVSCLVLGTENKELLVLDPEAFTILAKMSLPSVPVFLEVSGQFDVEFRLAAACRNGNIYILRRDSKHPKYCIELSAQPVGLIRVHKVLVVGSTQDSLHGFTHKGKKLWTVQMPAAILTMNLLEQHSRGLQAVMAGLANGEVRIYRDKALLNVIHTPDAVTSLCFGRYGREDNTLIMTTRGGGLIIKILKRTAVFVEGGSEVGPPPAQAMKLNVPRKTRLYVDQTLREREAGTAMHRAFKTDLYLLRLRAARAYLQALESSLSPLSTTAREPLKLHAVVQGLGPTFKLTLHLQNTSTTRPVLGLLVCFLYNEALYSLPRAFFKVPLLVPGLNYPLETFVESLSNKGISDIIKVLVLREGQSAPLLSAHVNMPGSEGLAAA [Q453K] | with no effect |
| MAAASSSDSDACGAESNEANSKWLDAHYDPMANIHTFSACLALADLHGDGEYKLVVGDLGPGGQQPRLKVLKGPLVMTESPLPALPAAAATFLMEQHEPRTPALALASGPCVYVYKNLRPYFKFSLPQLPPNPLEQDLWNQAKEDRIDPLTLKEMLESIRETAEEPLSIQSLRFLQLELSEMEAFVNQHKSNSIKRQTVITTMTTLKKNLADEDAVSCLVLGTENKELLVLDPEAFTILAKMSLPSVPVFLEVSGQFDVEFRLAAACRNGNIYILRRDSKHPKYCIELSAQPVGLIRVHKVLVVGSTQDSLHGFTHKGKKLWTVQMPAAILTMNLLEQHSRGLQAVMAGLANGEVRIYRDKALLNVIHTPDAVTSLCFGRYGREDNTLIMTTRGGGLIIKILKRTAVFVEGGSEVGPPPAQAMKLNVPRKTRLYVDQTLREREAGTAMHRAFETDLYLLRLRAARAYLQALESSLSPLSTTAREPLKLHAVVQGLGPTFKLTLHLQNTSTTRPVLGLLVCFLYNEALYSLPRAFFKVPLLVPGLNYPLETFVESLSNKGISDIIKVLVLREGQSAPLLSAHVNMPGSEGLAAA [Q453E] | with no effect |
| MAAASSSDSDACGAESNEANSKWLDAHYDPMANIHTFSACLALADLHGDGEYKLVVGDLGPGGQQPRLKVLKGPLVMTESPLPALPAAAATFLMEQHEPRTPALALASGPCVYVYKNLRPYFKFSLPQLPPNPLEQDLWNQAKEDRIDPLTLKEMLESIRETAEEPLSIQSLRFLQLELSEMEAFVNQHKSNSIKRQTVITTMTTLKKNLADEDAVSCLVLGTENKELLVLDPEAFTILAKMSLPSVPVFLEVSGQFDVEFRLAAACRNGNIYILRRDSKHPKYCIELSAQPVGLIRVHKVLVVGSTQDSLHGFTHKGKKLWTVQMPAAILTMNLLEQHSRGLQAVMAGLANGEVRIYRDKALLNVIHTPDAVTSLCFGRYGREDNTLIMTTRGGGLIIKILKRTAVFVEGGSEVGPPPAQAMKLNVPRKTRLYVDQTLREREAGTAMHRAFATDLYLLRLRAARAYLQALESSLSPLSTTAREPLKLHAVVQGLGPTFKLTLHLQNTSTTRPVLGLLVCFLYNEALYSLPRAFFKVPLLVPGLNYPLETFVESLSNKGISDIIKVLVLREGQSAPLLSAHVNMPGSEGLAAA [Q453A] | with no effect |
| MAAASSSDSDACGAESNEANSKWLDAHYDPMANIHTFSACLALADLHGDGEYKLVVGDLGPGGQQPRLKVLKGPLVMTESPLPALPAAAATFLMEQHEPRTPALALASGPCVYVYKNLRPYFKFSLPQLPPNPLEQDLWNQAKEDRIDPLTLKEMLESIRETAEEPLSIQSLRFLQLELSEMEAFVNQHKSNSIKRQTVITTMTTLKKNLADEDAVSCLVLGTENKELLVLDPEAFTILAKMSLPSVPVFLEVSGQFDVEFRLAAACRNGNIYILRRDSKHPKYCIELSAQPVGLIRVHKVLVVGSTQDSLHGFTHKGKKLWTVQMPAAILTMNLLEQHSRGLQAVMAGLANGEVRIYRDKALLNVIHTPDAVTSLCFGRYGREDNTLIMTTRGGGLIIKILKRTAVFVEGGSEVGPPPAQAMKLNVPRKTRLYVDQTLREREAGTAMHRAFQADLYLLRLRAARAYLQALESSLSPLSTTAREPLKLHAVVQGLGPTFKLTLHLQNTSTTRPVLGLLVCFLYNEALYSLPRAFFKVPLLVPGLNYPLETFVESLSNKGISDIIKVLVLREGQSAPLLSAHVNMPGSEGLAAA [T454A] | with no effect |
| MAAASSSDSDACGAESNEANSKWLDAHYDPMANIHTFSACLALADLHGDGEYKLVVGDLGPGGQQPRLKVLKGPLVMTESPLPALPAAAATFLMEQHEPRTPALALASGPCVYVYKNLRPYFKFSLPQLPPNPLEQDLWNQAKEDRIDPLTLKEMLESIRETAEEPLSIQSLRFLQLELSEMEAFVNQHKSNSIKRQTVITTMTTLKKNLADEDAVSCLVLGTENKELLVLDPEAFTILAKMSLPSVPVFLEVSGQFDVEFRLAAACRNGNIYILRRDSKHPKYCIELSAQPVGLIRVHKVLVVGSTQDSLHGFTHKGKKLWTVQMPAAILTMNLLEQHSRGLQAVMAGLANGEVRIYRDKALLNVIHTPDAVTSLCFGRYGREDNTLIMTTRGGGLIIKILKRTAVFVEGGSEVGPPPAQAMKLNVPRKTRLYVDQTLREREAGTAMHRAFQEDLYLLRLRAARAYLQALESSLSPLSTTAREPLKLHAVVQGLGPTFKLTLHLQNTSTTRPVLGLLVCFLYNEALYSLPRAFFKVPLLVPGLNYPLETFVESLSNKGISDIIKVLVLREGQSAPLLSAHVNMPGSEGLAAA [T454E] | with no effect |
